Test results taken from US20230002732A1.

B1: RNF111 (enzyme, UniProt Q6ZNA4 1-994, looked up)
chain: MSQWTPEYNELYTLKVDMKSEIPSDAPKTQESLKGILLHPEPIGAAKSFPAGVEMINSKVGNEFSHLCDDSQKQEKEMNGNQQEQEKSLVVRKKRKSQQAGPSYVQNCVKENQGILGLRQHLGTPSDEDNDSSFSDCLSSPSSSLHFGDSDTVTSDEDKEVSVRHSQTILNAKSRSHSARSHKWPRTETESVSGLLMKRPCLHGSSLRRLPCRKRFVKNNSSQRTQKQKERILMQRKKREVLARRKYALLPSSSSSSENDLSSESSSSSSTEGEEDLFVSASENHQNNPAVPSGSIDEDVVVIEASSTPQVTANEEINVTSTDSEVEIVTVGESYRSRSTLGHSRSHWSQGSSSHASRPQEPRNRSRISTVIQPLRQNAAEVVDLTVDEDEPTVVPTTSARMESQATSASINNSNPSTSEQASDTASAVTSSQPSTVSETSATLTSNSTTGTSIGDDSRRTTSSAVTETGPPAMPRLPSCCPQHSPCGGSSQNHHALGHPHTSCFQQHGHHFQHHHHHHHTPHPAVPVSPSFSDPACPVERPPQVQAPCGANSSSGTSYHEQQALPVDLSNSGIRSHGSGSFHGASAFDPCCPVSSSRAAIFGHQAAAAAPSQPLSSIDGYGSSMVAQPQPQPPPQPSLSSCRHYMPPPYASLTRPLHHQASACPHSHGNPPPQTQPPPQVDYVIPHPVHAFHSQISSHATSHPVAPPPPTHLASTAAPIPQHLPPTHQPISHHIPATAPPAQRLHPHEVMQRMEVQRRRMMQHPTRAHERPPPHPHRMHPNYGHGHHIHVPQTMSSHPRQAPERSAWELGIEAGVTAATYTPGALHPHLAHYHAPPRLHHLQLGALPLMVPDMAGYPHIRYISSGLDGTSFRGPFRGNFEELIHLEERLGNVNRGASQGTIERCTYPHKYKKVTTDWFSQRKLHCKQDGEEGTEEDTEEKCTICLSILEEGEDVRRLPCMHLFHQVCVDQWLITNKKCPICRVDIEAQLPSES
B2: ZBTB16 (protein, UniProt Q05516 1-673, looked up)
chain: MDLTKMGMIQLQNPSHPTGLLCKANQMRLAGTLCDVVIMVDSQEFHAHRTVLACTSKMFEILFHRNSQHYTLDFLSPKTFQQILEYAYTATLQAKAEDLDDLLYAAEILEIEYLEEQCLKMLETIQASDDNDTEATMADGGAEEEEDRKARYLKNIFISKHSSEESGYASVAGQSLPGPMVDQSPSVSTSFGLSAMSPTKAAVDSLMTIGQSLLQGTLQPPAGPEEPTLAGGGRHPGVAEVKTEMMQVDEVPSQDSPGAAESSISGGMGDKVEERGKEGPGTPTRSSVITSARELHYGREESAEQVPPPAEAGQAPTGRPEHPAPPPEKHLGIYSVLPNHKADAVLSMPSSVTSGLHVQPALAVSMDFSTYGGLLPQGFIQRELFSKLGELAVGMKSESRTIGEQCSVCGVELPDNEAVEQHRKLHSGMKTYGCELCGKRFLDSLRLRMHLLAHSAGAKAFVCDQCGAQFSKEDALETHRQTHTGTDMAVFCLLCGKRFQAQSALQQHMEVHAGVRSYICSECNRTFPSHTALKRHLRSHTGDHPYECEFCGSCFRDESTLKSHKRIHTGEKPYECNGCGKKFSLKHQLETHYRVHTGEKPFECKLCHQRSRDYSAMIKHLRTHNGASPYQCTICTEYCPSLSSMQKHMKGHKPEEIPPDWRIEKTYLYLCYV
B3: PIAS3 (enzyme, UniProt Q9Y6X2 1-628, looked up)
chain: MAELGELKHMVMSFRVSELQVLLGFAGRNKSGRKHELLAKALHLLKSSCAPSVQMKIKELYRRRFPRKTLGPSDLSLLSLPPGTSPVGSPGPLAPIPPTLLAPGTLLGPKREVDMHPPLPQPVHPDVTMKPLPFYEVYGELIRPTTLASTSSQRFEEAHFTFALTPQQVQQILTSREVLPGAKCDYTIQVQLRFCLCETSCPQEDYFPPNLFVKVNGKLCPLPGYLPPTKNGAEPKRPSRPINITPLARLSATVPNTIVVNWSSEFGRNYSLSVYLVRQLTAGTLLQKLRAKGIRNPDHSRALIKEKLTADPDSEVATTSLRVSLMCPLGKMRLTVPCRALTCAHLQSFDAALYLQMNEKKPTWTCPVCDKKAPYESLIIDGLFMEILSSCSDCDEIQFMEDGSWCPMKPKKEASEVCPPPGYGLDGLQYSPVQGGDPSENKKKVEVIDLTIESSSDEEDLPPTKKHCSVTSAAIPALPGSKGVLTSGHQPSSVLRSPAMGTLGGDFLSSLPLHEYPPAFPLGADIQGLDLFSFLQTESQHYGPSVITSLDEQDALGHFFQYRGTPSHFLGPLAPTLGSSHCSATPAPPPGRVSSIVAPGGALREGHGGPLPSGPSLTGCRSDIISLD
B4: ZMYM5 (protein, UniProt Q9UJ78 1-669, looked up)
chain: MEKCSVGGLELTEQTPALLGNMAMATSLMDIGDSFGHPACPLVSRSRNSPVEDDDDDDDVVFIESIQPPSISAPAIADQRNFIFASSKNEKPQGNYSVIPPSSRDLASQKGNISETIVIDDEEDIETNGGAEKKSSCFIEWGLPGTKNKTNDLDFSTSSLSRSKTKTGVRPFNPGRMNVAGDLFQNGEFATHHSPDSWISQSASFPSNQKQPGVDSLSPVALLRKQNFQPTAQQQLTKPAKITCANCKKPLQKGQTAYQRKGSAHLFCSTTCLSSFSHKRTQNTRSIICKKDASTKKANVILPVESSKSFQEFYSTSCLSPCENNWNLKKGVFNKSRCTICSKLAEIRHEVSVNNVTHKLCSNHCFNKYRLANGLIMNCCEHCGEYMPSKSTGNNILVIGGQQKRFCCQSCINEYKQMMETKSKKLTASENRKRNAFREENEKQLYGSSNTLLKKIEGIPEKKEKTSQLQLSVECGTDTLLIQENVNLPPSSTSTIADTFQEQLEEKNFEDSIVPVVLSADPGTWPRILNIKQRDTLVENVPPQVRNFNFPKDNTGRKFSETYYTRILPNGEKTTRSWLLYSTSKDSVFCLYCKLFGEGKNQLKNENGCKDWQHLSHILSKHEESEMHVNNSVKYSKLKSDLKKNKAIDAAEHRLYENEKNDGVLLLYT
B5: C18orf25 (protein, UniProt Q96B23 1-404, looked up)
chain: MKMEEAVGKVEELIESEAPPKASEQETAKEEDGSVELESQVQKDGVADSTVISSMPCLLMELRRDSSESQLASTESDKPTTGRVYESDSSNHCMLSPSSSGHLADSDTLSSAEENEPSQAETAVEGDPSGVSGATVGRKSRRSRSESETSTMAAKKNRQSSDKQNGRVAKVKGHRSQKHKERIRLLRQKREAAARKKYNLLQDSSTSDSDLTCDSSTSSSDDDEEVSGSSKTITAEIPDGPPVVAHYDMSDTNSDPEVVNVDNLLAAAVVQEHSNSVGGQDTGATWRTSGLLEELNAEAGHLDPGFLASDKTSAGNAPLNEEINIASSDSEVEIVGVQEHARCVHPRGGVIQSVSSWKHGSGTQYVSTRQTQSWTAVTPQQTWASPAEVVDLTLDEDSRRKYLL
B6: ZNF198 (protein, UniProt Q9UBW7 1-1377, looked up)
chain: MDTSSVGGLELTDQTPVLLGSTAMATSLTNVGNSFSGPANPLVSRSNKFQNSSVEDDDDVVFIEPVQPPPPSVPVVADQRTITFTSSKNEELQGNDSKITPSSKELASQKGSVSETIVIDDEEDMETNQGQEKNSSNFIERRPPETKNRTNDVDFSTSSFSRSKVNAGMGNSGITTEPDSEIQIANVTTLETGVSSVNDGQLENTDGRDMNLMITHVTSLQNTNLGDVSNGLQSSNFGVNIQTYTPSLTSQTKTGVGPFNPGRMNVAGDVFQNGESATHHNPDSWISQSASFPRNQKQPGVDSLSPVASLPKQIFQPSVQQQPTKPVKVTCANCKKPLQKGQTAYQRKGSAHLFCSTTCLSSFSHKPAPKKLCVMCKKDITTMKGTIVAQVDSSESFQEFCSTSCLSLYEDKQNPTKGALNKSRCTICGKLTEIRHEVSFKNMTHKLCSDHCFNRYRMANGLIMNCCEQCGEYLPSKGAGNNVLVIDGQQKRFCCQSCVSEYKQVGSHPSFLKEVRDHMQDSFLMQPEKYGKLTTCTGCRTQCRFFDMTQCIGPNGYMEPYCSTACMNSHKTKYAKSQSLGIICHFCKRNSLPQYQATMPDGKLYNFCNSSCVAKFQALSMQSSPNGQFVAPSDIQLKCNYCKNSFCSKPEILEWENKVHQFCSKTCSDDYKKLHCIVTYCEYCQEEKTLHETVNFSGVKRPFCSEGCKLLYKQDFARRLGLRCVTCNYCSQLCKKGATKELDGVVRDFCSEDCCKKFQDWYYKAARCDCCKSQGTLKERVQWRGEMKHFCDQHCLLRFYCQQNEPNMTTQKGPENLHYDQGCQTSRTKMTGSAPPPSPTPNKEMKNKAVLCKPLTMTKATYCKPHMQTKSCQTDDTWRTEYVPVPIPVPVYIPVPMHMYSQNIPVPTTVPVPVPVPVFLPAPLDSSEKIPAAIEELKSKVSSDALDTELLTMTDMMSEDEGKTETTNINSVIIETDIIGSDLLKNSDPETQSSMPDVPYEPDLDIEIDFPRAAEELDMENEFLLPPVFGEEYEEQPRPRSKKKGAKRKAVSGYQSHDDSSDNSECSFPFKYTYGVNAWKHWVKTRQLDEDLLVLDELKSSKSVKLKEDLLSHTTAELNYGLAHFVNEIRRPNGENYAPDSIYYLCLGIQEYLCGSNRKDNIFIDPGYQTFEQELNKILRSWQPSILPDGSIFSRVEEDYLWRIKQLGSHSPVALLNTLFYFNTKYFGLKTVEQHLRLSFGTVFRHWKKNPLTMENKACLRYQVSSLCGTDNEDKITTGKRKHEDDEPVFEQIENTANPSRCPVKMFECYLSKSPQNLNQRMDVFYLQPECSSSTDSPVWYTSTSLDRNTLENMLVRVLLVKDIYDKDNYELDEDTD

Each molecule was assayed on E4bp4 (NFIL3), wild type (assay: cell_activity). Conditions: 3T3 cells, 48 h; transcriptional repression.
For “pGL3-E4bp4-CS reporter with three E4bp4 consensus binding sites”, the activity (% decrease in luciferase) was 50.

What follows are molecules tested against E4bp4 (assay: yeast-two-hybrid screen, E4bp4 as bait). Conditions: not given.
For “TLK2 (from UniProt Q86UE8 1-772) (enzyme)”, the Positive clones was 2 clones. Work on “RANBP2 (from UniProt P49792 1-3224) (enzyme)” yielded a Positive clones of 1 clones. For “SETX (from UniProt Q7Z333 1-2677) (enzyme)”, the Positive clones was 2 clones. For SNRP70 (from UniProt P08621 2-437), the Positive clones was 2 clones. For DSP (from UniProt P15924 1-2871), the Positive clones was 2 clones. FLJ544447 showed a Positive clones of 1 clones. FLNA (from UniProt P21333 2-2647) showed a Positive clones of 1 clones. FLJ13057 showed a Positive clones of 5 clones. With “HIPK1 (from UniProt Q86Z02 1-1210) (enzyme)” the Positive clones was 1 clones. ZNF237 showed a Positive clones of 5 clones. PIAS1 (from UniProt O75925 2-651) showed a Positive clones of 20 clones. Molecule “HIPK3 (from UniProt Q9H422 1-1215) (enzyme)” has a Positive clones of 5 clones. Molecule “U5-200KD (from UniProt O75643 1-2136) (enzyme)” has a Positive clones of 1 clones. Work on CHD1 (from UniProt O14646 1-1710) yielded a Positive clones of 1 clones. In the case of “SORL1 (from UniProt Q92673 82-2214) (receptor)”, the Positive clones is reported as 1 clones. With B1 the Positive clones was 1 clones. B2 showed a Positive clones of 1 clones. B3 showed a Positive clones of 2 clones. B4 was tested, and the Positive clones was 5 clones. With B5 the Positive clones was 1 clones. Molecule B6 has a Positive clones of 5 clones.
